# Assay results taken from patent US7632814B2, “HYD1 peptides as anti-cancer agents” (University of South Florida, priority 2006, dated 2009).
# Where no end group is shown, it is not given here. [ ]: non-standard residue; d: D form.
# What was measured:
# [1] = target: T1, β1 integrin (Homo sapiens, UniProt P05556); test: Binding of peptide to the cell surface
# T1 construct: endogenous in cells
# Text: Another aspect of the invention concerns a method of identifying modulators of peptide binding (a screen for molecules that displace peptide binding). Agents that are identified as being capable of competing with the HYD1 peptides of the invention for binding to β1 integrin may have utility as cytotoxic agents for research or therapy (e.g., for cancer treatment). The method comprising providing a candidate agent (such as a chemical compound, antibody, nucleic acid, or peptide); and determining whether the agent inhibits (e.g., disrupts, prevents, or interferes with), the ability of a HYD1 peptide of the invention (HYD1 or a fragment or variant thereof) to bind to β1 integrin on a cell surface (e.g., cancer cell surface) and/or inhibit β1 integrin mediated adhesion, in vitro or in vivo (e.g., in an animal model). Preferably, the cell is a cancer cell such as a myeloma cell or a cell of other cancer types (see, for example Table 1). Preferably, the peptide is labeled with a detectable moiety (e.g., a fluorescent tag, such as […]) to facilitate the determining step. Examples of controls that may be utilized in carrying out the screening method include, but are not limited to, unlabeled HYD1 peptides (HYD1, or a fragment or variant thereof); scrambled peptides (such as HYD1S); β1 integrin blocking antibody; and non-specific surface antigen binding antibody (such as CD138 for myeloma cells). Advantageously, using the screening assay, labeled HYD1 or fragments or variants thereof, can be used to screen candidates such as small molecules, on natural product libraries, in a rapid, high-throughput fashion. […] Fluorescence polarization (FP) analysis can be used to screen small molecule or natural product libraries for discovery of novel compounds that mimic the specific binding and potentially the biological activity of HYD1. The FP assay is based on the extent of depolarization of the free versus bond peptide, which can be accurately measured on commercially available FP plate readers. […] In summary, a high throughput screen (HTS) can be used to bind small molecules prior to the addition of an HYD1 probe and molecules of interest can be identified by displacement of bond peptide, with a corresponding increase in unbound peptide by FP analysis. An analogous high-throughput binding assay based on fluorescence polarization, which allows screening for small molecules that bind to the STAT3 SH2 domain, is described in Schust J. and Berg T., Anal Biochem., 2004 Jul. 1; 330(1):114-8. […]
# [2] = tested on: 8226 cells; test: Lysosensor staining of acidic vesicles, confocal microscopy; type: cell-based; details: 100 μg/ml, six hours, compared to control cells
# Protocol: (§1) Lysosensor green was used to detect acidic compartments and live cell imaging was performed by confocal microscopy. Shown is a representative figure. The experiment was repeated three independent times and similar results were obtained.
# (§2) Lysosensor staining. 35 mm glass bottom microwell dishes were incubated with 10 ul Cell-tak (BD biosciences San Jose, Calif.) and 290 ul 0.5M sodium bicarbonate (Sigma) for 30 minutes. The plates were aspirated and 200,000H929 or 8226 cells were plated. Cells were then treated with either water (VC), 100 μg/ml HYD1 or 100 μg/ml HYD1S for 6 hours. After the 6-hour incubation, the plates were aspirated and washed once with warm media. Media containing 1 μM lysosensor DND-189 (Molecular Probes, Carlsbad Calif.) and 20 μM Hoechst 33342 (Molecular Probes) was added and samples were incubated for an additional 30 minutes. Samples were analyzed with a Leica DMI6000 inverted TCS SP5 confocal scanner (Leica Microsystems, Germany). 405 Diode and Argon laser lines were applied to excite the samples and tunable filters were used to minimize the crosstalk between fluorochromes. Gain, offset, and pinhole setting were identical for all samples within the treatment group. Image sections at […] were captured with photomultiplier detectors and maximum projections were prepared with the LAS AF software version 1.6.0 build 1016 (Leica Microsystems, Germany).
# [3] = tested on: H929 cells; test: as above; type: cell-based; details: 100 μg/ml, six hours, compared to control cells
# Protocol: as §1, §2
# T1 sequence (P05556 21-798): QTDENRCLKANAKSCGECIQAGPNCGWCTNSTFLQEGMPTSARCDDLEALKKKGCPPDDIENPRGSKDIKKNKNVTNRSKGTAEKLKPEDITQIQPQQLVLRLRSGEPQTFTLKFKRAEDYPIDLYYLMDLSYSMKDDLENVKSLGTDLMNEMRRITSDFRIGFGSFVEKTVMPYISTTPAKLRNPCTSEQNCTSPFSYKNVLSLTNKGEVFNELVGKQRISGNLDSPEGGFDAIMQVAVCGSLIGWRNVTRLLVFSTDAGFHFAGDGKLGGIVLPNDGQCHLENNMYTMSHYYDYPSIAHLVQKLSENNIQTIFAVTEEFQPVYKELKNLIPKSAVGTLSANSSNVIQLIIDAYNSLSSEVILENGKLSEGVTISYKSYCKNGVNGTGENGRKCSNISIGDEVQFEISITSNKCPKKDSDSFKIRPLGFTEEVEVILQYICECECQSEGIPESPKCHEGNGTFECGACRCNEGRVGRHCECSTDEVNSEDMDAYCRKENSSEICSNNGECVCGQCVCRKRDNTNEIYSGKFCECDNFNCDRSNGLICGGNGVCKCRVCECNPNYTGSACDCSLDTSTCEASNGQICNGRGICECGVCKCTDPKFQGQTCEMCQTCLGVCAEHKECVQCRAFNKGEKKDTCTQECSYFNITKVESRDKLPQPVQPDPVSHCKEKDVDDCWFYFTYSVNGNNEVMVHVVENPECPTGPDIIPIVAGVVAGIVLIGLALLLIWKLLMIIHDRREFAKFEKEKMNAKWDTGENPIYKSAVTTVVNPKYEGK
substance,measurement,setting,value
kikmviswkg ([dK][dI][dK][dM][dV][dI][dS][dW][dK]G) [HYD1],binding to the cell surface,[1],bind to the cell surface
same,blocking of cell surface binding by β1 integrin antibody,[1],is blocked
same,number and size of acidic vesicles,[2],increase in the number and size of acidic vesicles
same,number and size of acidic vesicles,[3],increase in the number and size of acidic vesicles
